{"source": "patent US20100111941A1", "about": "“METHODS FOR TREATING CANCER” (priority 2006, published 2010)", "molecules": {"B1": {"name": "rNAPc2: recombinant protein of the NAP family, single chain, non-glycosylated 85 amino acid protein (SEQ ID NO: 3) (protein, listed as Ancylostoma caninum)", "chain": "KATMQCGENEKYDSCGSKECDKKCKYDGVEEEDDEEPNVPCLVRVCHQDCVCEEGFYRNKDDKCVSAEDCELDNMDFIYPGTRN"}, "B2": {"name": "rNAPc2/pro: recombinant protein having the amino acid sequence of rNAPc2 modified to add a proline residue to the C-terminus (SEQ ID NO: 4) (protein, listed as Ancylostoma caninum)", "chain": "KATMQCGENEKYDSCGSKECDKKCKYDGVEEEDDEEPNVPCLVRVCHQDCVCEEGFYRNKDDKCVSAEDCELDNMDFIYPGTRNP"}, "B3": {"name": "NAP5: 77-amino acid NAP protein (SEQ ID NO: 1) originally isolated from the hookworm Ancylostoma caninum (protein, listed as Ancylostoma caninum)", "chain": "KAYPECGENEWLDDCGTQKPCEAKCNEEPPEEEDPICRSRGCLLPPACVCKDGFYRDTVIGDCVREEECDQHEIIHV"}, "B4": {"name": "NAP6: 75-amino acid NAP protein (SEQ ID NO: 2) originally isolated from the hookworm Ancylostoma caninum (protein, listed as Ancylostoma caninum)", "chain": "LAYPECGENEWLDVCGTKKPCEAKCSEEEEEDPICRSFSCPGPAACVCEDGFYRDTVIGDCVKEEECDQHEIIHV"}}, "key": {"[1]": {"tested_on": "HCT116 tumor xenografts (human colorectal cancer cells)", "conditions": "for tumor weight reduced by, compared to vehicle control: day 14, rNAPc2/pro 300 μg/kg daily IP, 5-FU 10 mg/kg every-other-day IP, AVASTIN 0.5 mg/kg twice-weekly IP, 14 days, 6 mice/group", "protocol": "To determine the effect of rNAPc2/pro in combination with 5-fluorouracil (5-FU) in colorectal cancer, a murine xenograft colorectal tumor model was used. Human colorectal cancer cells (HCT116) were cultured in DMEM medium supplemented with 10% fetal bovine serum (FBS), harvested at log growth phase, enumerated and resuspended in HBSS buffer. Eight to ten week old female nude mice (NU/NU) were inoculated subcutaneously with 1×10^7 cells/mouse in a volume of 100 μl. Tumors were allowed to develop to an average size of 50 to 100 mm^3 before the treatment started (defined as day 0). HCT116 tumor xenograft-bearing mice were randomized into various treatment conditions and the treatment regimens lasted for 14 days.\nThe mice were treated as follows (6 mice/group):\n2)rNAPc2/pro (300 μg/kg, daily IP injection for 14 days);\n3) LOVENOX® (1.5 mg/kg, daily IP injection for 14 days);\n4) 5-FU (10 mg/kg, every-other-day IP injection for 14 days);\n5) AVASTIN® (0.5 mg/kg, twice-weekly IP injection for 14 days);\n10) LOVENOX®+AVASTIN®; and\nThe mice were monitored every-other-day for body weight, signs of morbidity (i.e., hemorrhage) and mortality. On day 14, mice were extirpated for HCT116 tumor xenografts and the tumors were weighed and measured. Tumor size was calculated as follows: tumor volume (size)=(length)×(width^2)/2 (mm^3)."}, "[2]": {"tested_on": "Human colorectal cancer cells (HCT116)", "experiment": "murine colorectal cancer-hepatic metastasis mouse model (HCT116)", "format": "in vivo, nude mice (NU/NU)", "conditions": "for Hepatic metastasis-free events: rNAPc2/pro 300 μg/kg daily IP for 28 days, CPT-11 100 mg/kg once-weekly IP for 4 weeks, livers removed day 42, 8 mice/group", "protocol": "To determine the effect of rNAPc2/pro in treating hepatic tumor metastasis, a murine colorectal cancer-hepatic metastasis mouse model was used.\n(§1) The mice were treated as follows (8 mice/group):\n2) HCT116/vehicle control;\n3) HCT116/rNAPc2/pro (300 μg/kg, daily IP injection for 28 days);\n4) HCT116/CPT-11 (100 mg/kg, once-weekly IP injection for 4 weeks); and\nOn day 42, the livers were surgically removed, weighed and the number of liver surface metastases were counted in a blinded fashion. The other internal organs were examined for signs of hemorrhage. […] In some of the mice, no hepatic metastases were observed (Table 2)."}, "[3]": {"tested_on": "lung carcinoma tumors and melanoma tumors", "conditions": "mouse models; Hembrough et al., Cancer Res. 63:2997-3000 (2003); cited from earlier work"}, "[4]": {"tested_on": "intestinal adenomas and adenocarcinomas", "experiment": "murine spontaneous intestinal neoplasia mouse model (Min mouse)", "procedure": "To determine the effect of rNAPc2/pro in treating intestinal adenomas and adenocarcinomas, a murine spontaneous intestinal neoplasia mouse model was used: the Min mouse (The Jackson Laboratory, Bar Harbor, Me., USA).\nFour to five week old Apc^Min/+ or syngenic wild-type control (age- and sex-matched) were randomized into various treatment conditions and the treatment regimens lasted for 10 to 11 weeks.\nThe mice were treated as follows:\n1) Wild-type/vehicle control (3 mice);\n2) Wild-type/rNAPc2/pro (100 μg/kg, daily IP injection) (3 mice);\n3) Apc^Min/+/vehicle control (6 mice);\n4) Apc^Min/+/rNAPc2/pro (6 mice); and\n5) Apc^Min/+/LOVENOX® (500 μg/kg, daily IP injection) (6 mice).\nThe mice were monitored every-other-day for body weight, signs of morbidity (i.e. hemorrhage) and mortality. On week 16, the intestines were removed, separated into proximal, middle and distal small intestine and colon, formed into “Swiss rolls” and processed for analysis. Mice were injected with 4 mg/mouse BrdU 2 h prior to harvest."}, "angiogenesis": {"tested_on": "angiogenesis", "conditions": "Hembrough et al., Cancer Res. 63:2997-3000 (2003); cited from earlier work"}, "fVIIa/TF complex": {"molecular_target": "T1, fVIIa/TF complex (Homo sapiens, UniProt P08709+P13726)", "T1 construct": "Lyophilized, purified, recombinant human fVlla is reconstituted in HBS", "T1 sequence (P08709 213-466 limits assumed)": "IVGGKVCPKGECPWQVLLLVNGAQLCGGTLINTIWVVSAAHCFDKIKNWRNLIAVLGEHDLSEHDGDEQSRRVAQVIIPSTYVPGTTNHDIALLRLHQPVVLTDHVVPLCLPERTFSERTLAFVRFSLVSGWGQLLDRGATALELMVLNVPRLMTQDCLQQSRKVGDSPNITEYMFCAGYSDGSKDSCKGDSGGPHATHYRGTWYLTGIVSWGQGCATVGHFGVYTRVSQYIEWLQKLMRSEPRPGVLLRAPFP", "T1 sequence (P08709 61-212 limits assumed)": "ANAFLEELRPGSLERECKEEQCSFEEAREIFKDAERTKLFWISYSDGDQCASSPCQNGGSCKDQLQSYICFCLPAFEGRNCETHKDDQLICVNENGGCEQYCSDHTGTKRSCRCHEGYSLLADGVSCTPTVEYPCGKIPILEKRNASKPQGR", "T1 sequence (P13726 33-295)": "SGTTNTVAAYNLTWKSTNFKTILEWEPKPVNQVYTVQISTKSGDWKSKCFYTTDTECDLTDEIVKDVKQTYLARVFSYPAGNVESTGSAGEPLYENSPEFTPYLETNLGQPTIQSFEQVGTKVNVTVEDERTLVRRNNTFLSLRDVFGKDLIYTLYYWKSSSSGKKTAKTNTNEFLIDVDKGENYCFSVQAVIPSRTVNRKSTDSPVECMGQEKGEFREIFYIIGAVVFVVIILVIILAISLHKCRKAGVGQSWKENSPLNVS", "T1 sequence (P00742 235-488 partner limits assumed)": "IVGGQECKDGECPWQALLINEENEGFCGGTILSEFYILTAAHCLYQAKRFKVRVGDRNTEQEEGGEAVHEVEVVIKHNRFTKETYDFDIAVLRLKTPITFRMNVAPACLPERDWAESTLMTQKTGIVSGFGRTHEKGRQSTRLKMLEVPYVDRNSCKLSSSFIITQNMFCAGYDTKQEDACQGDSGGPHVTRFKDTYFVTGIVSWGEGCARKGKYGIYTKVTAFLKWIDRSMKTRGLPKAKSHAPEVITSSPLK", "T1 sequence (P00742 41-179 partner limits assumed)": "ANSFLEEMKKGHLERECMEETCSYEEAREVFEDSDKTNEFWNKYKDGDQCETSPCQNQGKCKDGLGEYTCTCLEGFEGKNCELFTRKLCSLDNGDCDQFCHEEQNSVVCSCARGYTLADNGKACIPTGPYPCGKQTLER", "conditions": "when fXa, or a catalytically active or inactive derivative thereof, is present; cited from earlier work"}, "[5]": {"tested_on": "Murine colorectal cancer cells (CT26)", "experiment": "murine colorectal cancer-pulmonary metastasis mouse model (CT26)", "format": "in vivo, BALB/c mice", "conditions": "for Number of mice with no observable lung surface metastases: 8 mice/group", "protocol": "To determine the effect of rNAPc2/pro in treating pulmonary tumor metastasis, a murine colorectal cancer-pulmonary metastasis mouse model was used. […] Nine to eleven week old female syngenic BALB/c mice were inoculated via tail vein injection with 1×10^6 cells/mouse in a volume of 100 μl (defined as day 0).\nas §1\n3) CT26/rNAPc2/pro (10 μg/kg/day);\n4) CT26/rNAPc2/pro (30 μg/kg/day);\n5) CT26/rNAPc2/pro (100 μg/kg/day);\n6) CT26/rNAPc2/pro (300 μg/kg/day);\n7) CT26/rNAPc2/pro (1 mg/kg/day);\n8) CT26/rNAPc2/pro (2.5 mg/kg/day); and\n9) CT26/LOVENOX® (1.5 mg/kg/day, IP injection).\nOn day 11, the lungs were surgically removed, weighed and the number of lung surface metastases were counted in a blinded fashion. The other internal organs were examined for signs of hemorrhage. […] In some of the mice, no lung surface metastases were observed (Table 1). rNAPc2/pro was well-tolerated up to 2.5 mg/kg/day in mice with no hemorrhage-related mortality. […] No significant difference in animal body weight was observed between all experimental groups."}, "Factor Xa": {"molecular_target": "T2, Factor Xa (Homo sapiens, UniProt P00742)", "T2 construct": "made in house", "T2 sequence (P00742 235-488 limits assumed)": "as the sequence (P00742 235-488 partner limits assumed) above", "T2 sequence (P00742 41-179 limits assumed)": "as the sequence (P00742 41-179 partner limits assumed) above", "conditions": "selective = at least 10-fold higher potency than on related enzymes; cited from earlier work"}}}
{"molecule": "AVASTIN®: anti-VEGF antibody bevacizumab (Genentech) [reference compound]", "values": [{"measurement": "tumor weight reduced by, compared to vehicle control", "setting": "[1]", "value": 63, "unit": "%"}]}
{"molecule": "CCc1c2c(nc3ccc(OC(=O)N4CCC(N5CCCCC5)CC4)cc13)-c1cc3c(c(=O)n1C2)COC(=O)[C@]3(O)CC", "note": "[CPT-11, irinotecan, reference compound]", "values": [{"measurement": "Hepatic metastasis-free events", "setting": "[2]", "value": 0, "unit": "%"}]}
{"molecule": "TFPI: reported with rNAPc2 by Hembrough et al. to decrease tumor growth in mouse models [reference compound]", "values": [{"measurement": "growth of lung carcinoma tumors and melanoma tumors", "setting": "[3]", "value": "allegedly decrease the growth"}]}
{"molecule": "O=c1[nH]cc(F)c(=O)[nH]1", "note": "[5-FU, 5-fluorouracil, reference compound]", "values": [{"measurement": "tumor weight reduced by, compared to vehicle control", "setting": "[1]", "value": 41, "unit": "%"}]}
{"molecule": "B1", "values": [{"measurement": "formation of intestinal adenomas and adenocarcinomas", "setting": "[4]; Apc^Min/+ mice, 100 μg/kg daily IP, long-term administration (10 to 11 weeks), analysis on week 16", "value": "suppressed formation of intestinal adenomas and adenocarcinomas"}, {"measurement": "tolerability (major hemorrhage or other adverse effects)", "setting": "[4]; dosing regimens used in these studies, recipient mice", "value": "well-tolerated up to a three month period"}, {"measurement": "growth of lung carcinoma tumors and melanoma tumors", "setting": "[3]", "value": "allegedly decrease the growth"}, {"measurement": "inhibition of angiogenesis", "setting": "angiogenesis", "value": "potent inhibitor of angiogenesis"}, {"measurement": "selective inhibition of the fVIIa/TF complex", "setting": "fVIIa/TF complex", "value": "selective inhibition of the fVIIa/TF complex"}]}
{"molecule": "B2", "values": [{"measurement": "Number of mice with no observable lung surface metastases", "setting": "[5]; 10 μg/kg/day, day 11", "value": 1}, {"measurement": "Number of mice with no observable lung surface metastases", "setting": "[5]; 30 μg/kg/day, day 11", "value": 0}, {"measurement": "Number of mice with no observable lung surface metastases", "setting": "[5]; 100 μg/kg/day, day 11", "value": 1}, {"measurement": "Number of mice with no observable lung surface metastases", "setting": "[5]; 300 μg/kg/day, day 11", "value": 1}, {"measurement": "Number of mice with no observable lung surface metastases", "setting": "[5]; 1 mg/kg/day, day 11", "value": 0}, {"measurement": "local hemorrhage in internal organs", "setting": "[5]; 2.5 mg/kg rNAPc2/pro, 1.5 mg/kg LOVENOX, some of the mice", "value": "some local hemorrhage was noticed in internal organs"}, {"measurement": "Number of mice with no observable lung surface metastases", "setting": "[5]; 2.5 mg/kg/day, day 11", "value": 1}, {"measurement": "number of lung surface metastases", "setting": "[5]; compared to saline control mice, dose-dependent (10 μg/kg/day to 2.5 mg/kg/day), day 11, FIG. 8", "value": "reduced the number of lung surface metastases"}, {"measurement": "lung mass", "setting": "[5]; compared to saline control mice, dose-dependent, day 11, FIG. 9", "value": "reduced lung mass"}, {"measurement": "dose well-tolerated with no hemorrhage-related mortality", "setting": "[5]; mice, 11 days of treatment", "value": "up to 2.5 mg/kg/day"}, {"measurement": "number of liver surface metastases", "setting": "[2]; 300 μg/kg daily IP for 28 days, compared to vehicle control mice, day 42, FIG. 10", "value": "reduced the number of liver surface metastases"}, {"measurement": "liver mass", "setting": "[2]; 300 μg/kg daily IP for 28 days, compared to vehicle control mice, day 42, FIG. 11", "value": "reduced liver mass"}, {"measurement": "Hepatic metastasis-free events", "setting": "[2]", "value": 0, "unit": "%"}, {"measurement": "effect with CPT-11 in inhibiting hepatic metastases", "setting": "[2]; rNAPc2/pro 300 μg/kg daily IP in combination with CPT-11 100 mg/kg once-weekly IP", "value": "synergistic effect"}, {"measurement": "selective inhibition of the fVIIa/TF complex", "setting": "fVIIa/TF complex", "value": "selective inhibition of the fVIIa/TF complex"}, {"measurement": "tumor weight reduced by, compared to vehicle control", "setting": "[1]", "value": 31, "unit": "%"}, {"measurement": "tolerability (hemorrhage or other adverse effects)", "setting": "[1]; doses and dosing regimens of rNAPc2/pro used in the murine model of colorectal cancer", "value": "well tolerated by the recipient mice without major complications of hemorrhage or other adverse effects"}]}
{"molecule": "B3", "values": [{"measurement": "selective inhibition of Factor Xa", "setting": "Factor Xa", "value": "selective inhibition of Factor Xa"}]}
{"molecule": "B4", "values": [{"measurement": "selective inhibition of Factor Xa", "setting": "Factor Xa", "value": "selective inhibition of Factor Xa"}]}
